{"source": "patent US7235648B1", "about": "“Yeast cells engineered to produce pheromone system protein surrogates, and uses therefor” (Cadus Technologies, Inc., priority 1993, dated 2007)", "molecules": {"B1": {"name": "GPA141-Gαi3: first 41 amino acids of GPA1 fused to human Gαi3 (protein)", "chain": "MGCTVSTQTIGDESDPFLQNKRANDVIEQSLQLEKQRDKNEVKLLLLGAGESGKSTIVKQMKIIHE"}, "B2": {"name": "GPA41-Gα16: first 41 amino acids of GPA1 fused to Gα16 (protein)", "chain": "B1 chain with V42L, A49P, I57F, V58I, K62R, E66G"}, "B3": {"name": "GPA41-Gαoa: first 41 amino acids of GPA1 fused to Gαoa (protein)", "chain": "MGCTVSTQTIGDESDPFLQNKRANDVIEQSLQLEKQRDKNEVKLLLLGAGESGKSTIVKQMKIIHEDGFSGEDVKQYKPVVYSNTIQSLAAIVRAMDTLGIEYGDKERKADAKMVCDVVSRMEDTEPFSAELLSAMMRLWGDSGIQECFNRSREYQLNDSAKYYLDSLDRIGAADYQPTEQDILRTRVKTTGIVETHFTFKNLHFRLFDVGGQRSERKKWIHCFEDVTAIIFCVALSGYDQVLHEDETTNRMHESLMLFDSICNNKFFIDTSIILFLNKKDLFGEKIKKSPLTICFPEYTGPNTYEDAAAYIQAQFESKNRSPNKEIYCHMTCATDTNNIQVVFDAVTDIIIANNLRGCGLY"}, "B4": {"name": "GPA41-Gαob: first 41 amino acids of GPA1 fused to Gαob (protein)", "chain": "MGCTVSTQTIGDESDPFLQNKRANDVIEQSLQLEKQRDKNEVKLLLLGAGESGKSTIVKQMKIIHEDGFSGEDVKQYKPVVYSNTIQSLAAIVRAMDTLGIEYGDKERKADAKMVCDVVSRMEDTEPFSAELLSAMMRLWGDSGIQECFNRSREYQLNDSAKYYLDSLDRIGAADYQPTEQDILRTRVKTTGIVETHFTFKNLHFRLFDVGGQRSERKKWIHCFEDVTAIIFCVALSGYDQVLHEDETTNRMHESLKLFDSICNNKWFTDTSIILFLNKKDIFEEKIKKSPLTICFPEYTGPSAFTEAVAYIQAQYESKNKSAHKEIYTHVTCATDTNNIQFVFDAVTDVIIAKNLRGCGLY"}}, "note": "Where a chain is given by its changes, count along the chain named. Ends that are not written are not given here.", "data": [{"target": "T1, STE2 receptor (Saccharomyces cerevisiae, UniProt D6VTK4)", "T1 construct": "endogenous in cells; host or cells: S. cerevisiae MATa CY588 / CY1455", "T1 sequence (D6VTK4 1-431)": "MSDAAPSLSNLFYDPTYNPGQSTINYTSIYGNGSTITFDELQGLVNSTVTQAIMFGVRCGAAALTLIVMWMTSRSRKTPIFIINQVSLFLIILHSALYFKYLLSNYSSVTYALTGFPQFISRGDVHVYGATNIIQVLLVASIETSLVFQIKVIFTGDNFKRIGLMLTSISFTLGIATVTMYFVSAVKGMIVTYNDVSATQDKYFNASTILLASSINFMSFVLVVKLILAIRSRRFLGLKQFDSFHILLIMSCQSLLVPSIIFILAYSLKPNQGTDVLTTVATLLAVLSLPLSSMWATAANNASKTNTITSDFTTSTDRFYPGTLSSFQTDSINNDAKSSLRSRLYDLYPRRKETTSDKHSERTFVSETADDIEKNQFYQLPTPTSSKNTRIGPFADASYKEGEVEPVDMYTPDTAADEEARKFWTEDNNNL", "experiment": "Autocrine MATa yeast (CY588/CY1455) growth on histidine-deficient medium plus aminotriazole, fus1-HIS3 readout", "format": "cell-based", "settings": "CY588 transformed with Cadus 1219; range of aminotriazole concentrations", "description": "(§1) A MATa strain designed for the expression of peptides in the context of MFα1 (i.e., using the MFα1 expression vector. Cadus 1215) has been constructed. The genotype of this strain, which we designate CY588, is MATa bar1 far1-1 fus1-HIS3 ste14::TRP1 ura3 trp1 leu2 his3. The bar1 mutation eliminates the strain's ability to produce a protease that degrades α-factor and that may degrade some peptides encoded by the cloned oligonucleotides; the far1 mutation abrogates the arrest of growth which normally follows stimulation of the pheromone response pathway; an integrated FUS1-HIS3 hybrid gene provides a selectable signal of activation of the pheromone response pathway; and, finally, the ste14 mutation lowers background of the FUS1-HIS3 readout. The enzymes responsible for processing of the MFα1 precursor in MATα cells are also expressed in MATa cells (Sprague and Thorner, in The Molecular and Cellular Biology of the Yeast Saccharomyces: Gene Expression, 1992. Cold Spring Harbor Press), therefore, CY588 cells should be able to secrete peptides encoded by oligonucleotides expressed from plasmid Cadus 1215.\n(§2) Experiments were performed to test: 1. the ability of Cadus 1215 to function as a vector for the expression of peptides encoded by synthetic oligonucleotides; 2. the suitability of the oligonucleotides, as designed, to direct the secretion of peptides through the α-factor secretory pathway; 3. the capacity of CY588 to secrete those peptides; and 4. the ability of CY588 to respond to those peptides that stimulate the pheromone response pathway by growing on selective media. These experi-ments were performed using an oligonucleotide which encodes the 13 amino acid α-factor; i.e., the degenerate sequence (NNN)n in the oligonucleotide cloned into Cadus 1215 (see above) was specified (n=13) to encode this pheromone. CY588 was transformed with the resulting plasmid (Cadus 1219), and transformants selected on uracil-deficient medium were transferred to histidine-deficient medium supplemented with a range of concentrations of aminotriazole (an inhibitor of the HIS3 gene product that serves to reduce background growth). […] CY588 is competent for the secretion of a peptide encoded by the (NNN)n sequence of the synthetic oligonucleotide cloned into and expressed from Cadus 1215; and 2. CY588 can, in an autocrine fashion, respond to a secreted peptide which stimulates its pheromone response pathway, in this case by α-factor binding to STE2. Additional experiments were performed to test the utility of autocrine yeast strains in identifying agonists of the Ste2 receptor from among members of two semi-random α-factor libraries, α-Mid-5 and MFα-8. α-Mid-5 Library\n(§3) To identity peptide members of the α-Mid-5 library that could act as agonists on the STE2 receptor. CY1455, a high transforming version of CY588, was electroporated to enhance uptake of α-Mid-5 DNA. Transformants were selected on uracil-deficient (-Ura) synthetic complete medium and were transferred to histidine-deficient (-His) synthetic complete medium supplemented with 0.5 mM or 1 mM aminotriazole.\n(§4) Yeast able to grow on -His+aminotriazole medium include (1) yeast which are dependent on the expression of an α-factor variant agonist and (2) yeast which contain mutations that result in constitutive signalling along the pheromone pathway. […] Thus a recognizable formation (termed a “starburst”) results, consisting of a central colony, growing by virtue of autocrine stimulation of the pheromone pathway, surrounded by satellite colonies, growing by virtue of paracrine stimulation of the pheromone pathway by the agonist peptide as that ptpetide diffuses radially fromn the central, secreting colony.\n(§5) In order to identify the peptide sequence responsible for this “starburst” phenomenon, yeast were transferred from the center of the “starburst” and streaks were made on -Ura medium to obtain single colonies. […]", "values": [{"molecule": "Trp His Trp Leu Gln Leu Lys Pro Gly Gln Pro Met Tyr (chain 1 WHWLQLKPGQPMY; chain 2 WHWLQLKPGQPMY) [α-factor, yeast tridecapeptide mating pheromone, reference compound]", "ability to grow on histidine-deficient media supplemented with aminotriazole (autocrine response, α-factor binding to STE2)": "ability to grow on histidine-deficient media supplemented with aminotriazole"}]}, {"target": "T1, STE2 receptor", "experiment": "Autocrine MATa yeast (CY588/CY1455) growth on histidine-deficient medium plus aminotriazole, fus1-HIS3 readout", "format": "cell-based", "settings": "CY1455; -His medium with 0.5 mM or 1 mM aminotriazole; starburst phenotype", "description": "as §1, §2, §3, §4, §5", "values": [{"molecule": "WHWLRLQPGQPMY [M9]", "agonist activity on the STE2 receptor, α-Mid-5 library": "agonists"}, {"molecule": "WHWLSLDAGQPMY [M2]", "agonist activity on the STE2 receptor, α-Mid-5 library": "agonists"}, {"molecule": "WHWLRLQSGQPMY [M5]", "agonist activity on the STE2 receptor, α-Mid-5 library": "agonists"}, {"molecule": "WHWLSLSPGQPMY [M1]", "agonist activity on the STE2 receptor, α-Mid-5 library": "agonists"}, {"molecule": "WHWLSLYPGQPMY [M8]", "agonist activity on the STE2 receptor, α-Mid-5 library": "agonists"}, {"molecule": "WHWLSLVPGQPMY [M7]", "agonist activity on the STE2 receptor, α-Mid-5 library": "agonists"}, {"molecule": "Trp His Tip Leu Thr Leu MetAla Gly Gin Pro Met Tyr (WHWLTLMAGQPMY) [M3]", "agonist activity on the STE2 receptor, α-Mid-5 library": "agonists"}, {"molecule": "WHWLQLSAGQPMY [M4]", "agonist activity on the STE2 receptor, α-Mid-5 library": "agonists"}, {"molecule": "WHWLRLSAGQPMY [M6]", "agonist activity on the STE2 receptor, α-Mid-5 library": "agonists"}]}, {"target": "T2, yeast Gβγ (Saccharomyces cerevisiae, UniProt P18851+P18852)", "T2 construct": "Endogenous Gβγ subunits will be provided by the yeast STE4 and STE18 loci; endogenous in cells; host or cells: S. cerevisiae gpa1 tester strains", "T2 sequence (P18851 1-423)": "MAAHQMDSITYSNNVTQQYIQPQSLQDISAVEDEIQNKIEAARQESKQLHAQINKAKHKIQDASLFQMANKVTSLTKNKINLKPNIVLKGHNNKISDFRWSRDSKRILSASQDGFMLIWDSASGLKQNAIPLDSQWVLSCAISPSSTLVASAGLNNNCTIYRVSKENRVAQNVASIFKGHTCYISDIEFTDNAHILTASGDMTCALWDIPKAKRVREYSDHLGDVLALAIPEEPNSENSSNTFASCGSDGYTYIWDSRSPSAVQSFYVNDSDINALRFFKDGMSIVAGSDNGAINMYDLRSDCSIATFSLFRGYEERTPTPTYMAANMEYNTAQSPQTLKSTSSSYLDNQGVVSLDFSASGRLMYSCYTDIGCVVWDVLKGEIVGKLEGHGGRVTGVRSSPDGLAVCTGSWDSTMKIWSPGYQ", "T2 sequence (P18852 1-107 limits assumed)": "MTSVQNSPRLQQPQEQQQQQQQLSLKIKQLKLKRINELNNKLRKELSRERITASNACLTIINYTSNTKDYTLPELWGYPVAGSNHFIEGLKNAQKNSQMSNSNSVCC", "experiment": "Coupling of Gα subunits and hybrids to yeast Gβγ: complementation of gpa1 growth arrest phenotype and fus1-HIS3 transcription", "format": "cell-based", "settings": "not given", "description": "We have tested the hypothesis that there are switch region determinants involved in the association of Gα with Gβγ by constructing a series of hybrid Gα proteins encoding portions of GPA1 and GαS in different combinations (FIG. 11).\nPreferably, levels of Gα and Gβγ subunits are balanced. For example, heterologous Gα subunits may be expressed from a low copy (CEN ARS) vector containing the endogenous yeast GPA1 promotor and the GPA1 3′ untranslated region. The minimum criterion, applied to a heterologous Gα subunit with respect to its ability to couple functionally to the yeast pheromone pathway, is that it complement a gpa1 genotype when expressed from the GPA1 promoter on low copy plasmids or from an integrated, single copy gene. In the work described in this application, all heterologous Gα subunits have been assayed in two biological systems.", "values": [{"molecule": "GPA41-S: N-terminal 41 amino acids of GPA1 linked to Gαs sequence 42-394", "functional complementation of the growth arrest phenotype of gpa1 strains": "functionally complement"}, {"molecule": "B1", "functional complementation of the growth arrest phenotype of gpa1 strains": "functionally complement"}, {"molecule": "B2", "functional complementation of the growth arrest phenotype of gpa1 strains": "functionally complement"}, {"molecule": "B3", "functional complementation of the growth arrest phenotype of gpa1 strains": "do not"}, {"molecule": "B4", "functional complementation of the growth arrest phenotype of gpa1 strains": "do not"}]}]}
